The test system of this series is Nla type I-C Cascade-Cas3 in E. coli (Neisseria lactamica). The series can be described thus: cell_activity. The following applies: PAM TTC; E. coli plasmid interference.

“Nla native CRISPR spacer 1 crRNA ; spacer 1 target with TTC PAM, plasmid” displayed an activity of 1000 fold.

For the origin of these results see patent US20240229081.
